# Reference: patent US20120276102A1 (Pfizer, published 2012)
# What was measured:
# [1] = target: T1, murine IL-21R expressed on cells (murine, UniProt Q9JHX3 20-529); experiment: cell-based or functional assay
# [2] = target: T2, human IL-21R expressed on cells (human, UniProt Q9HBE5 20-538); experiment: cell-based or functional assay
# [3] = target: T3, murine IL-21R extracellular domain His-Flag fusion protein (murine, UniProt Q9JHX3 20-237); experiment: competition ELISA; competitor plate-bound 18A5 IgG
# T3 construct: Biotinylated in the ELISAs; also called mIL-21R-H/F; murine IL-21R-H/F
# Procedure: Blocked plates were washed 3× with PBS, and 50 μl/well of scFv/IL-21R mixtures were transferred to the appropriate plates and incubated for 1 hr at RT. Plates were washed 5× with PBS prior to the addition of a 1:6000 dilution of horseradish peroxidase-conjugated streptavidin (Southern Biotech, Birmingham, Ala.) secondary antibody to detect bound biotinylated mIL-21R-H/F. Plates were then incubated for 1 hr at RT and washed 7× with PBS. Signal was developed using 3,3′,5,5′-tetramethylbenzidine (TMB), the reaction stopped with H₂SO₄, and the absorbance read at 450 nm on an ENVISION™ plate reader (Perkin Elmer).
# [4] = target: T4, rat IL-21R expressed on cells (rat); experiment: cell ELISA, CHO cells
# T4 construct: whole, on cells
# Procedure: (§1) A subset of binding proteins was tested for binding to rat, cynomolgus monkey, human IL-21R, or human IL-2R-γ common subunit expressed transiently on the surfaces of CHO-PA-Dukx cells. Cells were transfected 48 hr prior to the assay. On the day of the assay, cells were washed gently 5× in PBS containing 0.9 mM CaCl₂ and 0.45 mM MgCl₂ (PBS/CaMg) on an automated plate washer (Titertek, Huntsville, Ala.), and blocked for 1 hr at RT in PBS/CaMg/5% nonfat dry milk. Conditioned media from transiently expressed anti-IL-21R IgGs were serially diluted in blocking buffer and added to the cells in the blocked plates for 1 hr at RT. Cells were washed 5× with PBS/CaMg and then incubated with horseradish peroxidase-conjugated anti-human IgG for 1 hr at RT. Cells were then washed 10× in PBS/CaMg and all of the wash buffer was removed. Cells were incubated with 100 μl TMB until the color reaction reached saturation, stopped with 100 μl of 0.18 M H₂SO₄, and read at A450 on a Perkin Elmer ENVISION™ plate reader.
# [5] = target: T2, human IL-21R expressed on cells; experiment: cell ELISA, CHO cells
# Procedure: as §1
# [6] = target: T5, cynomolgus monkey IL-21R expressed on cells (cynomolgus monkey, UniProt G7Q0S8 41-559); experiment: cell ELISA, CHO cells
# T5 construct: whole, on cells
# Procedure: as §1
# [7] = target: T1, murine IL-21R expressed on cells; experiment: cell-based or functional assay; remark: listed apart in the source
# [8] = target: T2, human IL-21R expressed on cells; experiment: cell-based or functional assay; remark: listed apart in the source
# [9] = target: T2, human IL-21R expressed on cells; experiment: cell-based ELISA on CHO cells transiently expressing human IL-21R; HRP anti-human IgG, A450
# Procedure: (§2) FIG. 6(a-l) depicts the binding of 21 anti-IL-21R IgGs to CHO cells transiently expressing human IL-21R (FIGS. 6a-c), rat IL-21R (FIGS. 6d-f), cynomolgus monkey IL-21R (FIGS. 6g-i), and human gamma common chain (FIGS. 6j-1). CHO cells were transiently transfected with IL-21R or the control gamma common chain, and binding was detected with HRP-conjugated anti-human IgG in a cell-based ELISA.
# as §1
# human IL-13-His/FLAG = target: T6, human IL-13-His/FLAG (human, UniProt P35225 35-146, limits assumed); experiment: SPR, Ab captured
# T6 construct: Unrelated His/FLAG-tagged control; also called human IL-13-H/F
# Procedure: (§3) The specificity of binding of a subset of transiently expressed anti-IL-21R binding proteins (here antibodies) was tested on a BIACORE™ 2000 surface plasmon resonance instrument. Anti-human-IgG, anti-murine immunoglobulin antibodies, and murine IL-21R-H/F were immobilized onto a research-grade carboxymethyl-dextran chip (CM5) using standard amine coupling. The sensor chip surface was activated with EDC/NHS for 7 min at a flow rate of 20 μl/min. The first flow cell was used as reference surface to correct for bulk refractive index, matrix effects, and nonspecific binding. […] Remaining activated groups were blocked with 1.0 M ethanolamine (pH 8.0). The molecular weights of the anti-human IgG and the anti-murine IgG were both 150 kD, and the molecular weight of the IL-21R monomer was 27 kD.
# (§4) Conditioned media containing anti-IL-21R antibodies and antibody controls (murine anti-human IL-2Rβ and murine anti-human IL-4R(R&D Systems, Minneapolis, Minn.); human anti-human IL-13 (Wyeth, Cambridge, Mass.)) were diluted in HBS/EP buffer supplemented with 0.2% bovine serum and injected onto all four flow cells of the BIACORE™ chip, capturing 500-700 (RU) of antibody on the species-appropriate capture antibody. Following a 5 sec washing period, 50 nM solutions of a positive control protein (murine IL-21R-H/F), two human proteins related to IL-21R (human IL-2Rβ and human sIL-4R(R&D Systems)), or an unrelated His/FLAG-tagged protein (human IL-13-H/F) were injected over the captured antibodies on the chip. The association and dissociation phases were monitored for 120 and 180 sec, respectively, followed by two 5 μl injections of glycine (pH 1.5) to regenerate a fully active capturing surface. All binding experiments were done at 25° C. in HBS/EP buffer. Blank and buffer effects were subtracted for each sensorgram using double referencing.
# human IL-2Rβ = target: T7, human IL-2Rβ (human, UniProt P14784 27-239); experiment: SPR, Ab captured
# T7 sequence (looked up): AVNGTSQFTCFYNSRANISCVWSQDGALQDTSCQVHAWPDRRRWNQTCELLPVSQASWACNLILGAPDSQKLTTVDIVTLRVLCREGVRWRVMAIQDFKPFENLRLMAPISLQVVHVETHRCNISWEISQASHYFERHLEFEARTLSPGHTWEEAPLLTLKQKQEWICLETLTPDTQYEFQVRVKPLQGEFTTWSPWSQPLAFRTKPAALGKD
# Procedure: as §3, §4
# human soluble IL-4R = target: T8, human soluble IL-4R (human, UniProt P24394 26-232, limits assumed); experiment: SPR, Ab captured
# T8 construct: also called human sIL-4R
# Procedure: as §3, §4
# [10] = target: T5, cynomolgus monkey IL-21R expressed on …; experiment: cell-based ELISA on CHO cells transiently expressing cynomolgus monkey IL-21R; HRP anti-human IgG, A450
# Procedure: as §2, §1
# [11] = target: T9, human gamma (γ) common chain expressed on CHO cells (human, UniProt P31785 23-369); experiment: cell ELISA, CHO cells
# T9 construct: whole, on cells; Control protein; also called human IL-2R-γ common subunit; human γ-common
# T9 sequence (looked up): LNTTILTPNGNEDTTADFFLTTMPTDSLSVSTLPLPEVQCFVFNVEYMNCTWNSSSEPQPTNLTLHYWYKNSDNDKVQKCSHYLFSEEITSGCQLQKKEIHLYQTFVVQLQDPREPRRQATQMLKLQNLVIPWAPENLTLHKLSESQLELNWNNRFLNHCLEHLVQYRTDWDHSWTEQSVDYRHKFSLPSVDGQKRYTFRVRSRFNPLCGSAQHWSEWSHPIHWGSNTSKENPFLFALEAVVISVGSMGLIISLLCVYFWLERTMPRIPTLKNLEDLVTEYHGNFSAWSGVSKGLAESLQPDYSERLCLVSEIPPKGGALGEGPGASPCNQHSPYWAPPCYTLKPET
# Procedure: as §1
# T2 sequence (Q9HBE5 20-538 limits assumed): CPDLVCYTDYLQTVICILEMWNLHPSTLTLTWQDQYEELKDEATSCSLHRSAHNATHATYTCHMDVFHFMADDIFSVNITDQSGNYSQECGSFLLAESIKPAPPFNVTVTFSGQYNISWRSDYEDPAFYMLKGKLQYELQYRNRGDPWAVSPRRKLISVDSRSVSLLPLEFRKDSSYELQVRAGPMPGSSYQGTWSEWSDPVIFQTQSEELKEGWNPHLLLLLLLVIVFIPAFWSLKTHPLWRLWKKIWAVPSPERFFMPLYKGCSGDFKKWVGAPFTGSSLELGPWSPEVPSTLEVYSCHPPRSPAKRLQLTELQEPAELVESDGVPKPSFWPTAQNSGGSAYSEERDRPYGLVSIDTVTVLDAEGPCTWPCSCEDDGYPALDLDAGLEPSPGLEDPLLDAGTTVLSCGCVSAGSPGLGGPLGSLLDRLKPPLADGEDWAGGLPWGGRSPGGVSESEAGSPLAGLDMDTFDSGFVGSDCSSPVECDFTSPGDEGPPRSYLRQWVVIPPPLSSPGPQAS
# T6 sequence (P35225 35-146 limits assumed): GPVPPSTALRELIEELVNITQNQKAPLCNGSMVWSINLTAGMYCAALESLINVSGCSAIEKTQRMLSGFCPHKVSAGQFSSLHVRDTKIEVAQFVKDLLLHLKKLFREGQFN
Binder,"IC50, Murine IL-21R-BaF3 Neutralization Assay [1]","IC50, Human IL-21R-BaF3 Neutralization Assay [2]","IC50, Human IL-21R-TF1 Neutralization Assay [2]",IC50 [3],A450 (13 nM Ab) [4],A450 (13 nM Ab) [5],A450 (13 nM Ab) [6],Murine IL-21R-BaF3 Proliferation IC50 [7],Human IL-21R-BaF3 Proliferation IC50 [8],Human IL-21R-TF1 Proliferation IC50 [8],EC50 (read off the curve) [9],binding result (human IL-13-His/FLAG),binding result (human IL-2Rβ),binding result (human soluble IL-4R),EC50 (read off the curve) [10],A450 (13 nM Ab) [11]
scFv L24 (scFv) scFv: QVQLQESGPGLVKTSETLSLTCAVSGYSISSGYYWGWIRQPPGKGLEWIGSISHTGNTYYNPPLKSRVTISVDTSKNQFSLKLSSVTAADTAVYYCARGGGISRPEYWGKGTLVTVSSGGGGSGGGGSGGGGSALSSELTQDPPVSVALGQTVTLTCQGDSLRTYYASWYQQKSGQAPILLLYGKHKRPSGIPDRFSGSTSGDTASLTITGAQAEDEADYYCIARSNKGNPHVLFGGGTQLTVL,3.73 nM,2.4 nM,18.7 nM,6 nM,,,,,,,,,,,,
scFv L25 (scFv) scFv: QVQLQESGPGLVKTSETLSLTCAVSGYSISSGYYWGWIRQPPGKGLEWIGSISHTGNTYYNPPLKSRVTISVDTSKNQFSLKLSSVTAADTAVYYCARGGGISRPEYWGKGTLVTVSSGGGGSGGGGSGGGGSALSSELTQDPPVSVALGQTVTLTCQGDSLRTYYASWYQQKSGQAPILLLYGKHKRPSGIPDRFSGSTSGDTASLTITGAQAEDEADYYCTTRSNKGNPHVLFGGGTQLTVL,15.6 nM,3.7 nM,33.1 nM,9 nM,,,,,,,,,,,,
"AbD (antibody, IgG1, V domains shown, As for AbA: IgG1/lambda, CDR3 graft, residue limits derived; also called VHP/VL13) VH: QVQLQESGPGLVKPSETLSLTCAVSGYSISSGYYWGWIRQPPGKGLEWIGSISHTGNTYYNPPLKSRVTISVDTSKNQFSLKLSSVTAADTAVYYCARGGGISRPEYWGQGTLVTVSS VL: SSELTQDPAVSVALGQTVRITCQGDSLRTYYASWYQQKPGQAPVLVIYGKHKRPSGIPDRFSGSSSGNTASLTITGAQAEDEADYYCVTRNRYGNPHVLFGGGTQLTVL",,,,,0.874 A450,1.25 A450,1.38 A450,0.01 nM,0.91 nM,2.67 nM,~0.9 nM,no binding (tested: 50 nM),no binding (tested: 50 nM),no binding (tested: 50 nM),~2 nM,
"AbN (antibody, IgG1, V domains shown, As for AbA: IgG1/lambda, CDR3 graft, residue limits derived; also called VH6/VL24) VH: QVQLQESGPGLVKPSETLSLTCAVSGYSISSGYYWGWIRQPPGKGLEWIGSISHTGNTYYNPPLKSRVTISVDTSKNQFSLKLSSVTAADTAVYYCARFFGFGRPEYWGQGTLVTVSS VL: SSELTQDPAVSVALGQTVRITCQGDSLRTYYASWYQQKPGQAPVLVIYGKHKRPSGIPDRFSGSSSGNTASLTITGAQAEDEADYYCIARSNKGNPHVLFGGGTQLTVL",,,,,0.702 A450,1.21 A450,1.5 A450,0.435 nM,0.5 nM,1.59 nM,,,,,,0.136 A450
"AbM (antibody, IgG1, V domains shown, As for AbA: IgG1/lambda, CDR3 graft, residue limits derived; also called VH6/VL13) VH: QVQLQESGPGLVKPSETLSLTCAVSGYSISSGYYWGWIRQPPGKGLEWIGSISHTGNTYYNPPLKSRVTISVDTSKNQFSLKLSSVTAADTAVYYCARFFGFGRPEYWGQGTLVTVSS VL: SSELTQDPAVSVALGQTVRITCQGDSLRTYYASWYQQKPGQAPVLVIYGKHKRPSGIPDRFSGSSSGNTASLTITGAQAEDEADYYCVTRNRYGNPHVLFGGGTQLTVL",,,,,0.78 A450,1.2 A450,1.45 A450,0.125 nM,1.08 nM,4.22 nM,,,,,~3 nM,
"AbH (antibody, IgG1, V domains shown, As for AbA: IgG1/lambda, CDR3 graft, residue limits derived; also called VHP/VL19) VH: QVQLQESGPGLVKPSETLSLTCAVSGYSISSGYYWGWIRQPPGKGLEWIGSISHTGNTYYNPPLKSRVTISVDTSKNQFSLKLSSVTAADTAVYYCARGGGISRPEYWGQGTLVTVSS VL: SSELTQDPAVSVALGQTVRITCQGDSLRTYYASWYQQKPGQAPVLVIYGKHKRPSGIPDRFSGSSSGNTASLTITGAQAEDEADYYCVARAVRGNPHVLFGGGTQLTVL",,,,,1.1 A450,1.35 A450,1.32 A450,0.327 nM,0.94 nM,3.64 nM,~0.4 nM,no binding (tested: 50 nM),no binding (tested: 50 nM),no binding (tested: 50 nM),~0.5 nM,
